Reference: US20200040103A1
Changes are numbered by the printed parent chain.

B1: 14C8 (antibody, V domains shown)
VH: EVQLVESGGGLVQPGRSLKLSCTASGFTFSDYNMAWVRQAPKGGLEWVTTISYDAGRTYYRDSVKGRFTISRDNAKRTLSLQMDSLRSEDTATYYCATGIFNYGTDYFDYWGQGVMVTVSS
VL: DIQMTQSPASLSASLGETVTIQCRASEDIYSGLAWYQQKPGKSPQLLIYGATTLHDGVPSRFSGSGSGTQYSLKISSMHSEDEGIYFCHQGLSFPYTFGAGTKLELK
B2: 14E12 (antibody, V domains shown)
VH: EVQLVESGGGLVRPGRSLRLSCAASGFTFSDYYMAWVRQAPTKGLEWVASISYDGDTTYYRDSVKGRFTISRDNARSSLYLQMDSLRSDDTANYFCTTDGTIPAGSWFAYWGQGTLVTVSS
VL: DIQMTQSPASLSASLGETVTIECLASKNIYRNLAWYQQKPGKSPQFLISDASRLQDGVPSRFTGSDSGSQYSLKINSLQSEDVATYFCQQYHDYPYTFGAGTKLELK
B3: 8E11 (antibody, V domains shown)
VH: QEQLEESGGDLVKPEGSLTLTCTASGFSFSSSYWICWVRQAPGKGLEWIACVYGLDVNIYYASWTKGRFTISKTSSTTVTLQMTSLTAADTATYFCARGGGSADFGFDLWGPGTLVTVSS
VL: DVVMTQTASPVSAAVGGTVTIKCQASENIYSLLAWYQQKPGQPPKVLIYDASDLASGVPSRFKGSGSGTQFTLTISDLECADAATYYCQATAYGSSGNAFGGGTEVVVK
B4: 12B3 (antibody, V domains shown)
VH: QSLEESGGGLVKPGGTLTLTCKASGIDFNGGGIYWVRQAPGKGLEWIASIYPDHGSVDYANWVNGRFTISLDNAQNTVFLQLTSLTVADTATYFCARESGGSYYDLWGPGTLVTVSS
VL: AYDMTQTPASVEVAVGGTVTIKCQASQSISTYLAWYQQKPGQRPNLLIYKTSTLASGVPSRFRGSGSGTQFTLTISGVECADAATYYCQQGYSGSSVENTFGGGTEVVVK
B5: 1D10 (antibody, V domains shown)
VH: B4 VH with K22T, I26F, S49Y, V57A, N61T, L82M, S99T, Y103W
VL: AYDMTQTPVSVEAAVGGTVTIKCQASQSISSYLAWYQQKPGQPPKLLIYKASTLASGVSSRFKGSGSGTEFTLTISDLECADAATYYCQQGYSGSNVENTFGGGTEVVVK
B6: 10H3 (antibody, V domains shown)
VH: QSVKESEGGLIKPTDTLTLTCTVSGFSLSTFAINWVRQAPGNGLEWIGAIGRGGSAYYASWAKSRSTITKNTNLNTVTLKMTRPTAADTATYFCARENAGSGWGELDIWGPGTLVTVSS
VL: AYEMTQTPASVEVAVGGTVTINCQASESISSDLAWYQQKPGQRPKLLIYAASTLASGVPSRFKGSGSGTEFTLSISGVQCADAATYYCQQGYTWNNVDNVFGGGTEVVVK
B7: 8B7 (antibody, V domains shown)
VH: QSVKESEGGLFKPTDNLTLTCTVSGFSLSNYGVTWVRQAPGNGLEYIGFIGSSGSAYYASWAKSRSTITRNTNLNTVTLKMTSLTAADTATYFCARDDVGGGKSLDIWGPGTLVTVSS
VL: NIVMTQTPASVEVAVGGTVTIKCQASQSIGSYLSWYQQKPGQPPKLLIYDASNLASGVPSRFKGSGSGTQFTLSISDLECADAATYYCHQDYTSNNVDNTFGGGTEVVIK
B8: 10C8 (antibody, V domains shown)
VH: B7 VH with N30S, T34S, S53G, S55F, K103R, L113V
VL: NIVMTQTPASVEVAMGGTVIIKCQASQSISTYLSWYQQKPGQPPKLLIYSASTLASGVSSRFEGSGSGTQFTLTISGVQCADAATYYCHQDYTSNNVDNTFGGGTEVVVK
B9: 9H5 (antibody, V domains shown)
VH: B7 VH with N30S, T34S, S53G, S55F, L113V, S118V
VL: NIVMTQTPASVEAAVGGTVTINCQASQSISSYLSWYQQKSGQRPKLLIFSASTLASGVPSRFTGSGSGTQFTLTISDLQCADAATYYCHQDYTSSNVDNTFGGGTEVVVK
B10: 9F2 (antibody, V domains shown)
VH: B7 VH with N30S, T34S, S53G, A56P
VL: NIVMTQTPASVEVAVGGTVIIKCQASQSISNYLSWYHQKSGQRPRLLIYSASTLASGVPSRFKGSGSGTQFTLTISDLECADAATYYCHQDYTSNSVDNTFGGGTEVVVK

Target: recombinant human KLK5 (human) (UniProt Q9Y337)
Experiment: cell-based or functional assay

Chain of recombinant human KLK5 (human) (Q9Y337 67-293): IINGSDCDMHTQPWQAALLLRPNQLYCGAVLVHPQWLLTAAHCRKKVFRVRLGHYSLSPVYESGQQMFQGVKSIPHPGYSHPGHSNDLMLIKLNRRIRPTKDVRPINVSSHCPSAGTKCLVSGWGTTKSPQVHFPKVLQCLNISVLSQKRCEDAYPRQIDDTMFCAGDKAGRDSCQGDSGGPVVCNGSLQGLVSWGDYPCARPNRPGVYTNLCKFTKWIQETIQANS

inhibition of human KLK5 (screening)	Binder
< 90%	B1
< 90%	B2
< 90%	B3

Target: recombinant human KLK5 (human), Q9Y337
Experiment: cell-based or functional assay

Chain of recombinant human KLK5 (human), Q9Y337 (Q9Y337 67-293): as above

inhibition of human KLK5 (screening)	Binder
< 50%	B4
< 50%	B5

Target: recombinant human KLK5 (human) (UniProt Q9Y337)
Experiment: pro-KLK7 LC/MS assay, 5 nM KLK5

IC50	Binder
970 pM	B6
1290 pM	B7
1800 pM	B8
1680 pM	B9
1260 pM	B10

Target: recombinant human KLK5 (human) (UniProt Q9Y337)
Experiment: pro-KLK7 coupled assay, 5 nM KLK5

IC50	Binder
1170 pM	B6
920 pM	B7
1160 pM	B8
870 pM	B9
930 pM	B10

Target: recombinant human KLK5 (human) (UniProt Q9Y337)
Experiment: pro-KLK1 LC/MS assay, 0.5 nM KLK5

IC50	Binder
80 pM	B6
90 pM	B7
140 pM	B8
190 pM	B9
140 pM	B10

Target: recombinant human KLK5 (human) (UniProt Q9Y337)
Experiment: Kiapp assay curve, 0.125 nM KLK5, Z-VPR-pNA

IC50 (read off the curve)	Binder
300 pM	B6
200 pM	B7
200 pM	B8
200 pM	B9
200 pM	B10

Target: recombinant human KLK5 (human) (UniProt Q9Y337)
Experiment: Kiapp assay curve, 0.250 nM KLK5, Z-VPR-pNA

IC50 (read off the curve)	Binder
300 pM	B6
200 pM	B7
200 pM	B8
200 pM	B9
200 pM	B10

Target: recombinant human KLK5 (human) (UniProt Q9Y337)
Experiment: Kiapp assay curve, 0.500 nM KLK5, Z-VPR-pNA

IC50 (read off the curve)	Binder
400 pM	B6
200 pM	B7
200 pM	B8
300 pM	B9
300 pM	B10

Target: recombinant human KLK5 (human) (UniProt Q9Y337)
Experiment: Kiapp assay curve, 0.063 nM KLK5, Z-VPR-pNA

IC50 (read off the curve)	Binder
200 pM	B6
200 pM	B7
200 pM	B8
200 pM	B9
200 pM	B10

Target: recombinant human KLK5 (human) (UniProt Q9Y337)
Experiment: pro-KLK1 coupled assay, 0.5 nM KLK5

IC50	Binder
122 pM	B6
125 pM	B7
151 pM	B8
139 pM	B9
137 pM	B10

Target: recombinant human KLK5 (human) (UniProt Q9Y337)
Experiment: Kiapp, KLK5 0.5-0.0625 nM, Z-VPR-pNA

Ki	Binder
510 pM	B6
320 pM	B7
265 pM	B8
425 pM	B9
430 pM	B10

Target: recombinant human KLK5 (human) (UniProt Q9Y337)
Experiment: KLK5 direct activity assay, 5 nM KLK5, Boc-VPR-AMC

IC50 (read off the curve)	Binder
1000 pM	B6
1000 to 2000 pM	B7
900 pM	B8
800 pM	B9
1000 to 2000 pM	B10

Target: recombinant human KLK5 (human) (UniProt Q9Y337)
Experiment: direct activity assay, 5 nM KLK5, Boc-VPR-AMC

IC50	Binder
1090 pM	B6
1100 pM	B7
890 pM	B8
1080 pM	B9
1010 pM	B10

Target: recombinant human KLK5 (human) (UniProt Q9Y337)
Experiment: pro-KLK1 coupled assay, 0.5 nM KLK5, 31.25 nM pro-KLK1, PFR-AMC

IC50 (read off the curve)	Binder
100 pM	B6
100 pM	B7
100 to 200 pM	B8
100 to 200 pM	B9
100 to 200 pM	B10

Target: recombinant human KLK5 (human) (UniProt Q9Y337)
Experiment: pro-KLK7 coupled assay, 5 nM KLK5, 125 nM pro-KLK7, suc-LLVY-AMC

IC50 (read off the curve)	Binder
1000 pM	B6
1000 pM	B7
1000 pM	B8
800 pM	B9
900 pM	B10

Target: recombinant human KLK5 (human) (UniProt Q9Y337)
Experiment: SPR BIAcore T200, antibody captured by anti-human Fc, human KLK5 as analyte, 37 C

Kd	koff	kon	Binder
193 pM	0.000137 s⁻¹	705000 M⁻¹ s⁻¹	B9

Target: recombinant human KLK5 (human) (UniProt Q9Y337)
Experiment: pro-KLK7 LC/MS assay, 5 nM KLK5, 15 nM pro-KLK7, nM

IC50	Binder
968 pM	B6
1290 pM	B7
1800 pM	B8
1680 pM	B9
1260 pM	B10

Target: recombinant human KLK5 (human) (UniProt Q9Y337)
Experiment: array SPR imaging (IBIS MX96), antibody amine-coupled, human KLK5 injected 0-300 nM, 25 C

koff	Binder
0.000376 s⁻¹	B1
0.000414 s⁻¹	B2
0.000202 s⁻¹	B3
0.000589 s⁻¹	B6
0.000547 s⁻¹	B7
6.16e-05 s⁻¹	B8
0.000367 s⁻¹	B9
0.000339 s⁻¹	B10

Target: recombinant human KLK5 (human) (UniProt Q9Y337)
Experiment: Kiapp as the y-intercept of the line of IC50 (nM) versus KLK5 (nM), Z-VPR-pNA

Ki	Binder
393 pM	B6
264 pM	B7
277 pM	B8
402 pM	B9
377 pM	B10

Target: recombinant human KLK5 (human) (UniProt Q9Y337)
Experiment: pro-KLK1 LC/MS assay, 0.5 nM KLK5, 300 nM pro-KLK1; box column 2 of 3; no unit printed, nM per text

IC50	Binder
116 pM	B6
132 pM	B7
225 pM	B8
343 pM	B9
137 pM	B10

Target: recombinant human KLK5 (human) (UniProt Q9Y337)
Experiment: pro-KLK1 LC/MS assay, 0.5 nM KLK5, 300 nM pro-KLK1; box column 3 of 3; no unit printed, nM per text

IC50	Binder
130 pM	B6
106 pM	B7
149 pM	B8
102 pM	B9
180 pM	B10

Target: recombinant human KLK5 (human) (UniProt Q9Y337)
Experiment: pro-KLK1 LC/MS assay, 0.5 nM KLK5, 300 nM pro-KLK1; box column 1 of 3; no unit printed, nM per text

IC50	Binder
4.85 pM	B6
47.3 pM	B7
58.8 pM	B8
138 pM	B9
108 pM	B10
